Laboratory results reported in the supplement of paper PMC10567573.

B1: BTBD1 (parent)
chain: TSAEIELPDVEPAAFLALLRFLYS

Variants of: B1
Assay: protein stability index of a GFP-peptide fusion (GPS, HEK-293T) (PSI 1-6); higher = more stable
Conditions: c terminus: a fixed tail appended
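Further: lentivirally expressed fusions sorted by FACS into six bins by GFP to DsRed ratio, PSI derived from sequencing read proportions per bin multiplied by bin number.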

Protein stability index, by site and new letter:
L18: H 2.55, D 2.64, A 1.08, T 1.77, I 2.69, G 1.86, F 1.73, M 1.72, N 1.57, K 1.95, Q 1.83, C 1.77, V 1.37, R 2.03, E 2.13, W 2.2, P 2.11, Y 1.59, S 1.78
F15: D 2.73, P 2.6, S 2.04, W 2.89, H 1.67, K 1.71, N 1.98, M 1.43, Q 1.83, A 1.69, R 2.2, L 1.31, Y 2.56, G 2.23, C 2.3, E 2.31, T 1.78, V 1.75, I 1.95
L16: E 2.06, G 1.64, S 1.69, C 1.99, Q 2.31, A 2.19, T 1.87, H 1.74, F 2.06, N 2.01, P 1.94, Y 1.53, W 1.96, V 1.81, K 1.47, D 1.88, M 1.8, R 1.64, I 1.62
V10: K 1.69, E 2.35, G 2.23, P 2.32, T 2.01, Q 2.22, W 1.62, A 1.8, D 2.2, F 1.82, L 1.56, C 1.67, H 1.65, N 2.08, Y 1.78, R 2.09, M 1.95, S 2.78, I 1.8
A14: C 1.84, E 1.66, S 2.41, K 1.63, W 2.2, T 1.8, P 2.05, V 2.28, I 1.72, Q 1.77, N 1.92, D 2, R 1.87, M 1.47, L 1.4, G 2.04, F 1.91, H 2.04, Y 1.8
P12: K 1.61, I 2.24, C 2.3, T 1.41, E 2.08, L 1.67, Q 1.19, D 1.47, N 1.95, H 2.15, M 1.46, A 1.29, F 1.84, R 1.93, S 2.46, V 2.46, G 1.85, Y 2.22, W 1.8
L7: W 2.02, T 1.75, Q 1.96, A 1.88, Y 2.05, M 2.08, P 2.3, D 2.15, R 2.28, G 1.89, H 2.22, F 1.96, N 1.9, V 1.98, E 1.63, I 1.93, S 1.79, K 2.31, C 1.75
L19: P 2.11, S 1.69, T 1.76, Q 1.51, K 2.07, D 3.54, A 1.9, H 2.05, V 1.72, E 2.31, C 1.94, I 2.37, N 1.77, F 1.58, G 1.89, M 2.05, Y 2.49, R 1.84, W 1.98
D9: M 2.11, A 1.84, N 2, C 1.62, E 2.19, G 1.92, H 2, V 1.95, W 2.12, I 1.49, Y 1.33, T 2.55, K 1.98, F 2.23, Q 2.45, L 1.63, S 2.12, P 2.4, R 2.24
A17: Q 1.61, G 2.27, W 2, C 1.53, M 1.62, S 1.93, K 1.88, Y 1.98, N 2.06, I 1.4, H 1.67, R 2.42, D 1.89, E 2.12, V 1.99, F 1.98, L 2.04, T 2.38, P 1.75
E4: T 1.73, H 1.56, V 1.55, G 2.07, D 1.66, C 1.8, F 2.24, Y 1.68, A 1.84, K 1.17, L 1.91, S 1.45, N 1.44, R 1.59, I 2.07, Q 2.14, W 1.88, P 1.64, M 1.55
E11: A 1.84, C 1.1, I 2.38, D 1.69, S 1.73, T 2.4, N 2.15, M 1.32, W 1.69, F 1.68, K 2.75, H 1.91, L 1.88, G 2.44, V 1.52, Y 2.14, R 2.11, Q 1.56, P 1.98
I5: V 1.75, D 2.44, P 1.68, H 1.93, K 2.94, C 1.77, E 2.03, M 1.89, W 2, A 2.06, G 2.55, T 2.18, N 2.14, S 1.94, R 2.55, F 1.78, Q 2.4, L 1.75, Y 1.95
E6: K 2.13, C 2.3, G 1.75, A 2.19, I 2.82, P 2.31, W 1.85, V 1.67, D 2.07, M 2.22, R 1.84, F 1.64, N 1.96, T 2.1, S 2.49, H 1.78, Y 1.74, Q 2.01, L 1.73
P8: L 1.26, S 2.06, C 1.49, K 1.46, T 1.74, W 1.53, I 1.62, R 1.93, E 2.17, Q 1.76, N 1.92, V 2.48, M 1.9, F 2.23, G 1.96, A 1.97, D 1.95, Y 2.37, H 1.63
A3: I 2.26, T 1.99, H 1.8, R 2.26, V 2.27, W 1.41, K 2.17, Y 1.83, N 1.96, S 1.67, L 1.53, M 1.52, P 2.12, Q 2.01
R20: A 2.08, N 1.71, Q 2.05, L 3.18, D 1.38, M 2.54, P 2.01, F 2, H 1.79, K 1.29, G 2.67, E 1.77, C 1.19, T 4.67, S 1.93, V 3.16
A13: F 1.55, R 1.73, W 2.18, S 2.01, Y 1.59, N 2.5, E 1.85, K 2.43, I 1.8, L 1.81, P 2.05, D 2.02, V 2.02, H 2.16, M 2.02, C 1.88, Q 1.76, G 1.77, T 2.17
